The source of these data is US20060257938A1, “Method of screening for drugs that block ligand binding to a lipid binding protein” (priority 2005, published 2006).

Holding throughout (type): binding
A short description of assay [1]: Probe fluorescence ratio response to linolenic acid relative to ADIFAB2. The conditions noted are these: response relative to ADIFAB2. A digest of the protocol:
(§1)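 Each fatty acid's response was expressed relative to ADIFAB2, the rI-FABP-L72A probe, as ΔR/ΔRreference. ΔR is the change in the background-corrected two-wavelength intensity ratio R=Fλ1/Fλ2 from its analyte-free baseline R0. Emission was read near about 420-480 nm for unbound and about 495-580 nm for FFA-bound probe.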

Assay [2] in a line: Probe fluorescence ratio response to oleic acid relative to ADIFAB2. The conditions noted are these: response relative to ADIFAB2. In a few lines:
as §1

Assay [3] is described as follows: Probe fluorescence ratio response to linoleic acid relative to ADIFAB2. The settings on record: response relative to ADIFAB2. In a few lines: as §1
Assay [4] in a line: Probe fluorescence ratio response to arachidonic acid relative to ADIFAB2. The conditions noted are these: arachidonic acid; response relative to ADIFAB2. In a few lines: as §1
The nature of assay [5]: Probe fluorescence ratio response to palmitic acid relative to ADIFAB2. The conditions noted are these: response relative to ADIFAB2. A digest of the protocol: as §1

B1: 34H, 72A (protein, listed as Rattus norvegicus)
chain: AFDGTWKVDRNENYEKFMEKMGINVVKRKLGAHHNLKLTITQEGNKFTVKESSNFRNIDVVFELGVDFAYSAADGTELTGTWTMEGNKLVGKFKRVDNGKELIAVREISGNELIQTYTYEGVEAKRIFKKE
modifications: PEPTIDE (1)...(131) wild-type rat intestinal fatty acid binding protein
With B1, in assay [1], the “DR/DR LNA” value is on record as 0.72. The “DR/DR OA” value in assay [2] was found to be 0.52. In addition, the “DR/DR LA” value in assay [3] stood at 0.74. Besides, in assay [4], the “DR/DR AA” value amounted to 0.65. Further, in assay [5], the “DR/DR PA” value is reported as 0.38.

B2: 34K, 72A (protein, listed as Rattus norvegicus)
chain: AFDGTWKVDRNENYEKFMEKMGINVVKRKLGAHKNLKLTITQEGNKFTVKESSNFRNIDVVFELGVDFAYSAADGTELTGTWTMEGNKLVGKFKRVDNGKELIAVREISGNELIQTYTYEGVEAKRIFKKE
modifications: PEPTIDE (1)...(131) wild-type rat intestinal fatty acid binding protein
B2: the “DR/DR LNA” value in assay [1] is recorded as 1.33. For the same molecule, in assay [2], the “DR/DR OA” value turned out to be 0.41. Also, the “DR/DR LA” value in assay [3] is 0.61. The “DR/DR AA” value in assay [4] turned out to be 0.43. In addition, the “DR/DR PA” value in assay [5] was 0.26.

B3: 34N, 72A (protein, listed as Rattus norvegicus)
chain: AFDGTWKVDRNENYEKFMEKMGINVVKRKLGAHNNLKLTITQEGNKFTVKESSNFRNIDVVFELGVDFAYSAADGTELTGTWTMEGNKLVGKFKRVDNGKELIAVREISGNELIQTYTYEGVEAKRIFKKE
modifications: PEPTIDE (1)...(131) wild-type rat intestinal fatty acid binding protein
On to B3, for which, in assay [1], the “DR/DR LNA” value turned out to be 1.18. Besides, in assay [2], the “DR/DR OA” value amounted to 1.16. Also, in assay [3], the “DR/DR LA” value is listed as 1.16. Moreover, in assay [4], the “DR/DR AA” value is given as 1.19. The “DR/DR PA” value in assay [5] was 1.11.

B4: 34R, 72A (protein, listed as Rattus norvegicus)
chain: AFDGTWKVDRNENYEKFMEKMGINVVKRKLGAHRNLKLTITQEGNKFTVKESSNFRNIDVVFELGVDFAYSAADGTELTGTWTMEGNKLVGKFKRVDNGKELIAVREISGNELIQTYTYEGVEAKRIFKKE
modifications: PEPTIDE (1)...(131) wild-type rat intestinal fatty acid binding protein
For the molecule B4, in assay [1], the “DR/DR LNA” value was 0.47. Moreover, the “DR/DR OA” value in assay [2] is recorded as 0.44. Further, the “DR/DR LA” value in assay [3] is given as 0.61. For the same molecule, the “DR/DR AA” value in assay [4] came to 0.41. Further, the “DR/DR PA” value in assay [5] came out at 0.30.

B5: 34Q, 72A (protein, listed as Rattus norvegicus)
chain: AFDGTWKVDRNENYEKFMEKMGINVVKRKLGAHQNLKLTITQEGNKFTVKESSNFRNIDVVFELGVDFAYSAADGTELTGTWTMEGNKLVGKFKRVDNGKELIAVREISGNELIQTYTYEGVEAKRIFKKE
modifications: PEPTIDE (1)...(131) wild-type rat intestinal fatty acid binding protein
Turning to B5, in assay [1], the “DR/DR LNA” value is 0.48. Further, the “DR/DR OA” value in assay [2] was 0.44. Moreover, the “DR/DR LA” value in assay [3] is 0.56. Also, in assay [4], the “DR/DR AA” value was found to be 0.52. Besides, the “DR/DR PA” value in assay [5] was 0.36.

B6: 34P, 72A (protein, listed as Rattus norvegicus)
chain: AFDGTWKVDRNENYEKFMEKMGINVVKRKLGAHPNLKLTITQEGNKFTVKESSNFRNIDVVFELGVDFAYSAADGTELTGTWTMEGNKLVGKFKRVDNGKELIAVREISGNELIQTYTYEGVEAKRIFKKE
modifications: PEPTIDE (1)...(131) wild-type rat intestinal fatty acid binding protein
In the case of B6, the “DR/DR LNA” value in assay [1] turned out to be 0.76. In assay [2], the “DR/DR OA” value turned out to be 0.46. Moreover, the “DR/DR LA” value in assay [3] is recorded as 0.66. For the same molecule, the “DR/DR AA” value in assay [4] was 0.46. Moreover, in assay [5], the “DR/DR PA” value is 0.35.
